Experimental data published in patent US20040180375A1.

T1: yeast GPA1 (yeast) (UniProt P08539)
T1 sequence (looked up): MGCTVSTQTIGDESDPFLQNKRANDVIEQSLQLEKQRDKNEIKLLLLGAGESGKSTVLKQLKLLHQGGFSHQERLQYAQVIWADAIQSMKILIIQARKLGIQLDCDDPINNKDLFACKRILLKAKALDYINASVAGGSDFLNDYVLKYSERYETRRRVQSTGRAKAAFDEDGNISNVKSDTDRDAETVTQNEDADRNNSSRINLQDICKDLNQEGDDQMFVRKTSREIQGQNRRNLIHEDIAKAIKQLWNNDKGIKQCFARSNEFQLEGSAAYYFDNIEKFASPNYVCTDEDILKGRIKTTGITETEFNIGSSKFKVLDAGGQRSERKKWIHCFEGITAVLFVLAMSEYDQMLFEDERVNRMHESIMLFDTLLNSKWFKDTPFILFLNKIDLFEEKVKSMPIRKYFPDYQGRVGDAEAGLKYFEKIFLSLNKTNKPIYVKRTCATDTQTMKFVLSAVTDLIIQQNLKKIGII


How the values were obtained:
Assay in all cases: cell-based or functional assay
[1] = biological target: human His6-Gαi2 (expressed in Sf9 cells) (human) (UniProt P04899)
Sequence of human His6-Gαi2 (expressed in Sf9 cells) (human) (P04899 whole entry): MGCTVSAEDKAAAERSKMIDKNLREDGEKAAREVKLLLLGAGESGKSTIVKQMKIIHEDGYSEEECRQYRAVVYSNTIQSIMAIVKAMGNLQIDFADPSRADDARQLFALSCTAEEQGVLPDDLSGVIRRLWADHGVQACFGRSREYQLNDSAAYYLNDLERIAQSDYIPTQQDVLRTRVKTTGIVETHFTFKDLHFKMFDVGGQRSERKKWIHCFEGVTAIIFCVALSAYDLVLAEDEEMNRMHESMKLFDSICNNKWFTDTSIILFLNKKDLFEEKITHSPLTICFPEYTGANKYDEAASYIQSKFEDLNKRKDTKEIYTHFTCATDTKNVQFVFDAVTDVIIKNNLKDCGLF

rat Gαs (rat) = rat Gαs (rat) (UniProt P63095)
Sequence of rat Gαs (rat) (P63095 whole entry): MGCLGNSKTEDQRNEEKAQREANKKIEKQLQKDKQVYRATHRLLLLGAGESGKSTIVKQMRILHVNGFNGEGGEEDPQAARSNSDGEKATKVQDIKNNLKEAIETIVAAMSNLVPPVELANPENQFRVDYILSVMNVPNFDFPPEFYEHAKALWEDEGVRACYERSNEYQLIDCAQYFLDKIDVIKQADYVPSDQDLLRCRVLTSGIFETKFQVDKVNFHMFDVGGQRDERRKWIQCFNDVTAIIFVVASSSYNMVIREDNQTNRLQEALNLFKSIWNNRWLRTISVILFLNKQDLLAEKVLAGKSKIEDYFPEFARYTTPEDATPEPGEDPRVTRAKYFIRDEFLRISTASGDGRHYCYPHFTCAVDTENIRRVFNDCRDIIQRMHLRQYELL

yeast GPA1 (yeast) = biological target: T1, yeast GPA1 (yeast)
[2] = biological target: GPA1(1-41)-Gα16(S270P) (GPA1-human Gα16 fusion construct) (yeast; human)
[3] = biological target: GPA1(1-41)-Gαi2 chimera (first 41 amino acids of yeast Gpa1 fused to amino acids 36-356 of human Gαi2) (yeast; human) (UniProt P08539)
[4] = biological target: GPA1(1-41)-Gαi3 (GPA1-human Gαi3 fusion construct) (yeast; human) (UniProt P08539)

GTPγS binding to purified Gα (filter binding of GTPγ35S, 40 min) [1] [%] | β-galactosidase activity (FUS1p-lacZ reporter in yeast, AGS1, galactose) (relative β-galactosidase activity) (rat Gαs (rat)) | β-galactosidase activity (FUS1p-lacZ reporter in yeast, AGS1, galactose) (relative β-galactosidase activity) (yeast GPA1 (yeast)) | β-galactosidase activity (FUS1p-lacZ reporter in yeast, AGS1, galactose) (relative β-galactosidase activity) [2] | β-galactosidase activity (FUS1p-lacZ reporter in yeast, AGS1, galactose) (relative β-galactosidase activity) [3] | β-galactosidase activity (FUS1p-lacZ reporter in yeast, AGS1, galactose) (relative β-galactosidase activity) [4] | Binder
25 | – | – | – | – | – | GST-AGS1 (N-terminal GST fusion of AGS1, expressed in yeast from the CUP1 promoter on plasmid pYEX-4T1) (protein, not shown: a dimerising Fc or GST) MKLAAMIKKMCPSDSELSIPAKNCYRMVILGSSKVGKTAIVSRFLTGRFEDAYTPTIEDFHRKFYSIRGEVYQLDILDTSGNHPFPAMRRLSILTGDVFILVFSLDNRDSFEEVQRLRQQILDTKSCLKNKTKENVDVPLVICGNKGDRDFYREVDQREIEQLVGDDPQRCAYFEISAKKNSSLDQMFRALFAMAKLPSEMSPDLHRKVSVQYCDVLHKKALRNKKLLRAGSGGGGGDPGDAFGIVAPFARRPSVHSDLMYIREKASAGSQAKDKERCVIS
– | 6.4 | 7.6 | 22.5 | 125 | 63.3 | AGS1 (Activator of G protein Signaling, human, 281 amino acids) (protein) MKLAAMIKKMCPSDSELSIPAKNCYRMVILGSSKVGKTAIVSRFLTGRFEDAYTPTIEDFHRKFYSIRGEVYQLDILDTSGNHPFPAMRRLSILTGDVFILVFSLDNRDSFEEVQRLRQQILDTKSCLKNKTKENVDVPLVICGNKGDRDFYREVDQREIEQLVGDDPQRCAYFEISAKKNSSLDQMFRALFAMAKLPSEMSPDLHRKVSVQYCDVLHKKALRNKKLLRAGSGGGGGDPGDAFGIVAPFARRPSVHSDLMYIREKASAGSQAKDKERCVIS
